Reference: paper PMC6340141

Target: T1, native KCC2 (neuron-specific K+-Cl- cotransporter) (mouse (endogenous in mouse brain)), Q91V14
T1 chain: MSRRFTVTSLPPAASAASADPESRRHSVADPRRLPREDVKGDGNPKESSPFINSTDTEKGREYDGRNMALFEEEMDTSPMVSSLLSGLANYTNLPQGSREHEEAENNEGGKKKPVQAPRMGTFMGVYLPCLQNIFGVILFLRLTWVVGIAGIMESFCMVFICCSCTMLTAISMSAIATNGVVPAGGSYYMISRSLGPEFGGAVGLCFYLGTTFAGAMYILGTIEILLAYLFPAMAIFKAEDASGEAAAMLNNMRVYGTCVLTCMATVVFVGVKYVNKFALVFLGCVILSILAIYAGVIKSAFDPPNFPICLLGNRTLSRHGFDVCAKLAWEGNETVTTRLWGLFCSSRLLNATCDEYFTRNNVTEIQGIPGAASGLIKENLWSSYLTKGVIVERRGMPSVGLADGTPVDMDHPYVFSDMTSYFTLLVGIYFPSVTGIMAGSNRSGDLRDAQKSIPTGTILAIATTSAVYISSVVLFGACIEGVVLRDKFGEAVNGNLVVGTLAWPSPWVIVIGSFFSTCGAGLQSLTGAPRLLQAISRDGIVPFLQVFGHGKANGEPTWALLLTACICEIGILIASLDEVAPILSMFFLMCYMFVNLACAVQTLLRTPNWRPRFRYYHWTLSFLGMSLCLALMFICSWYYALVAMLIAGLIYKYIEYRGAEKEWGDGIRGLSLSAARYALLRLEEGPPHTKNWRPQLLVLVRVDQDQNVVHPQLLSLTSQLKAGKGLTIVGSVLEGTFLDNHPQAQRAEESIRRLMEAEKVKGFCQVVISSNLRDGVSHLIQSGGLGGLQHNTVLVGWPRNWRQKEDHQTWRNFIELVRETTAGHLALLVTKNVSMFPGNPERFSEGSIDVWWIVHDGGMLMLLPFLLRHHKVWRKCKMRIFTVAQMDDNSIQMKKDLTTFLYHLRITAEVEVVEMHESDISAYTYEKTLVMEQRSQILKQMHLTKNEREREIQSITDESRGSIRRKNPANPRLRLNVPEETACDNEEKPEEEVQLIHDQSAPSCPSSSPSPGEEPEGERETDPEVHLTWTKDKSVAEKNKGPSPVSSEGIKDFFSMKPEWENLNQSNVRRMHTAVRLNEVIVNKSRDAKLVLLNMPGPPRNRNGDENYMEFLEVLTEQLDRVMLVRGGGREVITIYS
Experiment: native gel or EMSA
Conditions: remark: other sources report otherwise

B1: native KCC2 (neuron-specific K+-Cl- cotransporter), Q91V14 1-1138 (natural protein)
chain: T1 chain
With B1 the stoichiometry N was 4.
